Data on 4 molecules can be found in US20260263521A1 (AIMED BIO, published 2026).

Experiment [1] concerns the target T1, human CD200R1 with dual His-tags (human, UniProt Q8TD46 25-265).
T1 construct: Captured on the SPR chip by an anti-histidine antibody; also called hCD200R1-his; not shown: dual His-tags
T1 sequence (looked up): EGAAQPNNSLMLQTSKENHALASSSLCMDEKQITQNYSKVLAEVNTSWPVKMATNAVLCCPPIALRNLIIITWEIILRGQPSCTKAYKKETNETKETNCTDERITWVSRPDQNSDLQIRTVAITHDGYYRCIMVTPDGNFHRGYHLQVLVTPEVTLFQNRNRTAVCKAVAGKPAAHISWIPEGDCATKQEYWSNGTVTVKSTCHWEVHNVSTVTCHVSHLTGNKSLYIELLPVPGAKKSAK
The experiment in a line: SPR (Biacore CM5), His-tagged antigen captured by anti-histidine antibody, antibody as analyte, 1:1 Langmuir fit. The procedure:
(§1) For the experiment, 30 μg/mL of an anti-histidine antibody was conjugated to a CM5 biacore chip via an amine bond while allowing to flow at 10 μl/min (10,000 RU). Then, 0.25 μg/mL of human or cynomolgus CD200R1 with dual His-tags was captured onto the completed chip for 60 seconds, and the binding ability of each antibody was analyzed. All experiments were performed by association of antibodies for 120 seconds and dissociation of antibodies for 600 seconds. The resulting graphs were fitted using a 1:1 Langmuir binding kinetic model (FIG. 16), and the kinetics of each antibody were calculated.
On the technique in general: In SPR one partner is held on a chip, and binding of the other changes the refractive index at the surface.

For experiment [2], the target named is T2, cynomolgus CD200R1 with dual His-tags (cynomolgus, UniProt G7NZT0 25-266).
T2 construct: Captured on the SPR chip by an anti-histidine antibody; also called CCD200R1-his; cCD200R1-his; not shown: dual His-tags
T2 sequence: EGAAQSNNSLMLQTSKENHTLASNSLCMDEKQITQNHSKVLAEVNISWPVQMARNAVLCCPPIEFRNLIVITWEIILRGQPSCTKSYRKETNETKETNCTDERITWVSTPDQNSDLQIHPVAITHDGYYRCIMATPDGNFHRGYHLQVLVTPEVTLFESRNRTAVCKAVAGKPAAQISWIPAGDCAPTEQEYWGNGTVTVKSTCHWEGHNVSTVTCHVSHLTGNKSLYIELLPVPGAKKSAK
The description is as above. The procedure: as §1

Experiment [3] has as its target T3, human CD200R1 expressed on cells (Jurkat-CD200R1, U937-CD200R1, HH cells) (human, UniProt Q8TD46 25-348).
T3 construct: whole, on cells; also called HH (CRL-2105); cell surface-expressed CD200R1
T3 sequence (looked up): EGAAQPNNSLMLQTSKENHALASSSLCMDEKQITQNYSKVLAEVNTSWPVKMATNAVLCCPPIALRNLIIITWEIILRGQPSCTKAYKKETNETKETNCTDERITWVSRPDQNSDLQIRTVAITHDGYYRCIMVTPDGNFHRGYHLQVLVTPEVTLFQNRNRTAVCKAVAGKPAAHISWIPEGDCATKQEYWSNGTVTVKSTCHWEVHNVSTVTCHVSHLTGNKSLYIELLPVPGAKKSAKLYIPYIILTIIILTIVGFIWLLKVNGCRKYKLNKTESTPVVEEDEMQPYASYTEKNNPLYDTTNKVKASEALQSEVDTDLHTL
The experiment in a line: flow cytometry, U937-CD200R cells. The method, then: (§2) Two additional wells were treated with 10 μl of mouse IgG1K (BD, #555751) and 5 μl of commercial CD200R1 antibody (Biolegend, #329308) to determine CD200R1 expression on the cell line surface for cell quality control.
(§3) The antibodies were serially diluted 10-fold from a maximum concentration of 100 nM to 10 nM, 1 nM, […], and were added to the pre-seeded cells. After reaction for 1 hour at 4° C., the cells were treated with Alexa-647 goat anti-human IgG (H+L) cross-adsorbed secondary antibody (Invitrogen, #A21445) and incubated for an additional 30 minutes at 4° C. After washing twice with FACS buffer, flow cytometry was performed using a Novocyte Flow cytometer (Agilent). Using GraphPad Prism software, the EC₅₀ was determined using a nonlinear graph model of log (agonist) vs. response-variable slope, as shown in Table 32.

Experiment [4] deals with T3, human CD200R1 expressed on cells …. The experiment in a line: cell-based or functional assay.
For experiment [5] the target is unchanged. The experiment in a line: flow cytometry, Jurkat-CD200R cells. The method, then:
as §2, §3
In general terms: A flow cytometer gives signals particle by particle.

Experiment [6] addresses T4, human CD200R1 recombinant protein (construct not stated) (human, UniProt Q8TD46 27-266, limits assumed).
T4 sequence (looked up): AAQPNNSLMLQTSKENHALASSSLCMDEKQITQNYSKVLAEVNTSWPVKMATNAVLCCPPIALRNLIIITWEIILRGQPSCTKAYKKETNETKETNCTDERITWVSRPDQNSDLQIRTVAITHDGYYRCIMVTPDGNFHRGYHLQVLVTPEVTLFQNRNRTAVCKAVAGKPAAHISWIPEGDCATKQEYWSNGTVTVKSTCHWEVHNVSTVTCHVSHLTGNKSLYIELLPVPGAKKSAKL
The experiment in a line: ELISA on human CD200R1, normalized absorbance at 450 nm, 0.0192-300 nM; panel 'Human CD200R1'. (An ELISA detects its analyte on a solid surface through an enzyme-linked reagent.)

In experiment [7] the target is T3, human CD200R1 expressed on cells …. The experiment in a line: cell-based or functional assay. The source holds these as a separate data set.
The target is the same in experiment [8]. The experiment in a line: flow cytometry, HH cells. The method, then:
as §2, §3

For experiment [9], the target named is T5, mouse CD200R1 protein (R&D systems, 2554-CD) (mouse, UniProt Q9ES57 26-238, limits assumed).
T5 construct: Bought; construct not described
T5 sequence (looked up): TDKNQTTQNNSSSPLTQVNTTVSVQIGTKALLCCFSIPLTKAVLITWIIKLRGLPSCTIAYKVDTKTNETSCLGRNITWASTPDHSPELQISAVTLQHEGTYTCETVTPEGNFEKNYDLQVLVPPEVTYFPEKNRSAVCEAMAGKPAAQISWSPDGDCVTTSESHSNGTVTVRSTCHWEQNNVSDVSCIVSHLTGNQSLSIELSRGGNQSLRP
The experiment in a line: ELISA on coated mouse CD200R1.

The target of another experiment is T6, Hybrid CD200R1 MH (mouse;human, UniProt Q9ES57;Q8TD46).
T6 construct: single domain; mouse D1 over human D2; also called MH hybrid domain; P001 MH domain
T6 sequence (hybrid extracellular part, looked up): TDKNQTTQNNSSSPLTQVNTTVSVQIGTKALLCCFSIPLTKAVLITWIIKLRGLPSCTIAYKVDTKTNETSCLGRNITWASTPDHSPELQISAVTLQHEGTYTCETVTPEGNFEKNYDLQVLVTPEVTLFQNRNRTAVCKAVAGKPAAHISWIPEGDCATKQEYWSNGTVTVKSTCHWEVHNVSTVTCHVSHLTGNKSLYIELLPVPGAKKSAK
The experiment in a line: ELISA, plate-bound MH hybrid (1 ug/mL), antibody 0.0192-300 nM, O.D 450 nm; panel 'P001 MH domain-1)'. The procedure:
Recombinant proteins were produced from the extracellular Ig-like V-type domain and Ig-like C2-type domain of human CD200R1, each designed as human-mouse (HM hybrid domain) and mouse-human (MH hybrid domain) recombinant proteins. A 96-well plate was coated at a concentration of 1 μg/mL with each protein at 4° C. for 16 hours and blocked with 3% skim milk. […] After color development with TMB substrate solution (Thermo Scientific, 34029, 1-Step™ Ultra TMB-ELISA Substrate Solution), the color reaction was stopped with a stop solution (Invitrogen, SS04, ELISA Stop Solution), and the absorbance was measured at an O.D. of 450 nm.

The target of experiment [10] is T7, human CD200RLa (Sino Biological, 11620-H08H) recombinant protein (human, UniProt Q6Q8B3 24-239).
T7 construct: Bought; construct not described
T7 sequence (looked up): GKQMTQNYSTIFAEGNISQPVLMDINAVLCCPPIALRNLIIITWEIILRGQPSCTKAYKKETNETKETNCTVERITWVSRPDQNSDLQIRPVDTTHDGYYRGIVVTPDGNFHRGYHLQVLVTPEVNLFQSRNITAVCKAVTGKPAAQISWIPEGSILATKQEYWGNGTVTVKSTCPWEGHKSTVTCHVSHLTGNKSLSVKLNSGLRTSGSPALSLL
The experiment in a line: ELISA, plate-bound human CD200RLa (2 ug/mL), antibody 0.0192-300 nM, O.D 450 nm; panel 'recombinant human CD200RLa'. The essentials:
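Plates coated overnight (16 h, 4° C) with human or cynomolgus CD200RLa recombinant protein, blocked with 3% skim milk; bound antibody detected by TMB colour development, reaction stopped before reading.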

Experiment [11] has as its target T4, human CD200R1 recombinant protein …. The experiment in a line: ELISA on human CD200R1, O.D 450 nm, 0.0192-300 nM; panel 'P001_CD200R1 human 1'. The method, then: (§4) 96-well plates were coated with human CD200R1 (R&D systems, 3414-CD) and mouse CD200R1 protein (R&D systems, 2554-CD) at a concentration of 2 μg/mL at 4° C. for 16 hours and then were blocked with 3% skim milk.
(§5) Color was developed with a TMB substrate solution (Thermo Scientific, 34029, 1-Step™ TMB-ELISA Ultra Substrate Solution). The color reaction was stopped with stop solution (Invitrogen, SS04, ELISA Stop Solution). The absorbance was measured at an optical density of 450 nm.
(§6) The secondary engineered antibodies were evaluated by ELISA in the same manner as in Examples described above.

Experiment [12] has as its target T5, mouse CD200R1 protein (R&D systems, …). The experiment in a line: ELISA on mouse CD200R1, O.D 450 nm, 0.0192-300 nM; panel 'P001_CD200R1 mouse 1'. The procedure: as §4, §5, §6

Values joined by “and” are separate entries in the source; they are usually repeats but may differ in a detail not shown here. Equal values may be shown once.

B1: P001009v1 (antibody, V domains shown)
VH: EVQLLESGGGLVQPGGSLRLSCAASGFTFSSYDMSWVRQAPGKGLEWVSWISHGGGSIYYADSVKGRFTISRDNSKNTLYLQMNSLRAEDTAVYYCARDAPAYSAPLFDYWGQGTLVTVSS
VL: QSVLTQPPSASGTPGQRVTISCSGSSSNIGNNAVNWYQQLPGTAPKLLIYYDKNRPSGVPDRFSGSKSGTSASLAISGLRSEDEADYYCAAWDDRLSGYVFGGGTKLTVL
notes: P001009 with LC S52K and S94R (Kabat); also called P019001v1; P0001009v1
What is called Kd is the concentration at which binding is half-saturated. A high value points to lower affinity. Broadly, the koff is the first-order rate constant of dissociation. Read a high koff as a short-lived complex. Broadly, the kon is a measure of how fast the partners come together. Low values mean slow association, high ones fast association. The EC50 is the midpoint of the concentration-response curve. Read a low EC50 as higher potency in that assay. Broadly, the EC50 (read off the curve) is the concentration that produces a half-maximal response. For B1, the Kd came out at 21 pM in experiment [1] and 264 pM in experiment [2]. Moreover, the figures for the koff in [1] and in experiment [2] were 0.0001 s⁻¹ and 0.00138 s⁻¹, respectively. Also, the results for the kon in experiment [1] and in experiment [2] were 4.77e+06 M⁻¹ s⁻¹ and 5.23e+06 M⁻¹ s⁻¹, respectively. Moreover, the EC50 amounted to 300 pM in [3], 170 pM in experiment [5] and 160 pM in [8]. Moreover, in experiment [4], the “IC50 (nM) of IL-6 inhibition, LPS-treated U937-CD200R1 cells” value is 0.1 nM. Besides, the “IC50 (nM) of TNF-α inhibition, LPS-treated U937-CD200R1 cells” value in [4] came out at 0.18 nM. For the same molecule, the “EC50 (read off the curve)” value in experiment [6] is roughly 3000 pM. In [7], the “EC50 (nM), degree of signal transduction by the Dok2 protein” value was found to be 1.28 nM.

B2: P001016 (IgG) (antibody, V domains shown)
VH: EVQLLESGGGLVQPGGSLRLSCAASGFTFSGYDMSWVRQAPGKGLEWVSGISYDGGSKYYADSVKGRFTISRDNSKNTLYLQMNSLRAEDTAVYYCAKDGYPLGAYYFDYWGQGTLVTVSS
VL: QSVLTQPPSASGTPGQRVTISCSVSSSNIGSNYVSWYRQLPGTAPKLLIYDDSKRPSGVPDRFSGSKSGTSASLAISGLRSEDEADYYCGTWDASLNGYVFGGGTKLTVL
On to B2, for which, in experiment [9], the binding result is “no binding (tested: 300 nM (highest concentration tested))”.

B3: P001001 (IgG) (antibody, V domains shown)
VH: EVQLLESGGGLVQPGGSLRLSCAASGFTFSSYDMHWVRQAPGKGLEWVSRISFTGSTSYNPSLKSRFTISRDNSKNTLYLQMNSLRAEDTAVYYCARDTWWEGYFDLWGQGTLVTVSS
VL: QSVLTQPPSASGTPGQRVTISCSGSSSNIGNNHVSWYQQLPGTAPKLLIYDDTDRLTSVPNRFSGSKSGTSASLAISGLRSEDEADYYCGTWDSSLSAYVFGGGTKLTVL
Regarding B3, the binding result is given as “no binding (tested: 300 nM (highest concentration tested))” in experiment [9], “no binding (tested: 300 nM)” with Hybrid CD200R1 MH and “no binding (tested: 300 nM)” in experiment [10].

B4: P001018v26 (antibody, V domains shown)
VH: QVQLVQSGAEVKKPGASVKVSCKASGYTFTSYVMHWVRQAPGQGLEWMGYINPYNDDTNYNEKFKGRVTMTRDTSTSTVYMELSSLRSEDTAVYYCAREDYYGSRWGTWGQGTLVTVSS
VL: DIVLTQSPASLAVSPGQRATITCRASKSVSTSGYSYMHWYQQKPGQPPKLLIYLASNLESGVPARFSGSGSGTDFTLTINPVEANDTANYYCQHSHELLTFGQGTKVEIK
notes: H3-Y102T, L3-R92H
For the molecule B4, the “EC50 (read off the curve)” value in experiment [11] was ~2000 pM and ~4000 pM. For the same molecule, the binding result in experiment [10] was “no binding (tested: 300 nM)”; in experiment [12], “binds”.
